Assay results published in patent US20250215412A1 (NOVOZYMES A S, published 2025).
Changes are numbered by the printed parent chain.

How the values were obtained:
Test in all cases: cell-based or functional assay
[1] = molecular target: T1, Chryseobacterium sp-62563 deamidase S258E (Chryseobacterium sp-62563)
T1 chain: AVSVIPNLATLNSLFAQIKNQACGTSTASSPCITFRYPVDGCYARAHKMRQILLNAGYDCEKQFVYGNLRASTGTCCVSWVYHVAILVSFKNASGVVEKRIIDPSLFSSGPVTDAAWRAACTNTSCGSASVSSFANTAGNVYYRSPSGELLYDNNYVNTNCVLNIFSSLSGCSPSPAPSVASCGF

[2] = molecular target: T2, Chryseobacterium sp-62563 deamidase V190G (Chryseobacterium sp-62563)
T2 chain: T1 chain with V81G, E149S

[3] = molecular target: T3, Chryseobacterium sp-62563 deamidase polypeptide (second polypeptide, deamidase domain), wildtype (Chryseobacterium sp-62563)
T3 chain: T1 chain with E149S

[4] = molecular target: T4, Chryseobacterium sp-62563 deamidase V190M (Chryseobacterium sp-62563)
T4 chain: T1 chain with V81M, E149S

[5] = molecular target: T5, Chryseobacterium sp-62563 deamidase L260E (Chryseobacterium sp-62563)
T5 chain: T1 chain with E149S, L151E

[6] = molecular target: T6, Chryseobacterium sp-62563 deamidase L260K (Chryseobacterium sp-62563)
T6 chain: T1 chain with E149S, L151K

[7] = molecular target: T7, Chryseobacterium sp-62563 deamidase Y261P (Chryseobacterium sp-62563)
T7 chain: T1 chain with E149S, Y152P

[8] = molecular target: T8, Chryseobacterium sp-62563 deamidase V190P (Chryseobacterium sp-62563)
T8 chain: T1 chain with V81P, E149S

[9] = molecular target: T9, Chryseobacterium sp-62563 deamidase V190Q (Chryseobacterium sp-62563)
T9 chain: T1 chain with V81Q, E149S

[10] = molecular target: T10, Chryseobacterium sp-62563 deamidase V190D (Chryseobacterium sp-62563)
T10 chain: T1 chain with V81D, E149S

[11] = molecular target: T11, Chryseobacterium sp-62563 deamidase V190K (Chryseobacterium sp-62563)
T11 chain: T1 chain with V81K, E149S

[12] = molecular target: T12, Chryseobacterium sp-62563 deamidase V190F (Chryseobacterium sp-62563)
T12 chain: T1 chain with V81F, E149S

B1: Chryseobacterium sp-62563 propeptide (first polypeptide, propeptide domain), wildtype (other)
chain: NQDPNLVAKESNETAMKDFGKTVPVGIEKEDGKFKISFMVTAQPYEIKDSKENAAYISMIKTAVENETPIHVFLKANTNEIAKVDKATDDDIRYFKSVFTKEVKEENRK
Relative activity of maturated deamidase [1]: ≥ 100 % initial rate | Relative activity of maturated deamidase [2]: ≥ 100 % initial rate | Relative activity of maturated deamidase [3]: < 20 % initial rate | Relative activity of maturated deamidase [4]: 44 % initial rate | Relative activity of maturated deamidase [5]: 53 % initial rate | Relative activity of maturated deamidase [6]: 73 % initial rate | Relative activity of maturated deamidase [7]: 32 % initial rate | Relative activity of maturated deamidase [8]: 32 % initial rate | Relative activity of maturated deamidase [9]: 96 % initial rate | Relative activity of maturated deamidase [10]: 30 % initial rate | Relative activity of maturated deamidase [11]: 36 % initial rate | Relative activity of maturated deamidase [12]: ≥ 100 % initial rate
